Data on 30 sequences can be found in the nanobody polyreactivity screen of Harvey et al. (2022).

This data set is described as follows: yeast display, Sf9 membrane polyspecificity reagent, FACS + sequencing; frameworks hold sequencing errors. An outline of the steps: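 Synthetic nanobody libraries on Saccharomyces cerevisiae BJ5465 were galactose-induced for 36–48 hours, stained 1 hour at 4 °C with 10% biotinylated, detergent-solubilized Sf9 membrane reagent and enriched on streptavidin microbeads. FACS then separated cells into low and high (top ~1%) gates by anti-HA (expression) and streptavidin (reagent binding) fluorescence. Genes were colony-PCR amplified, MiSeq 2 × 250 sequenced and CDR-length filtered. A clone's polyreactivity label is that of its gate of origin.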
“QVQLVESGGGLVQAGGSLRLSCAASGRTFDNNAMGWYRQAPGKEREFVAAITTGVGSTYADSVKGRFTISRDNAKNTVYLQMNSLKPEDTAVYYCAADSYWLFDAYDYWGQGTQVTVSS”: the “polyreactivity (PSR sort gate)” value was “low polyreactivity”. Turning to “QVQLVESGGGLVQAGGSLRLSCAASGRTFDPNAMGWYRQAPGKERELVAAISGRGTSTYYADSVKGRFTISRDDAKNTVYLQMNSLKPEDTAVYYCAKAGAGESIAKYDYWGQGTQVTVSS”, the “polyreactivity (PSR sort gate)” value is “low polyreactivity”. As to “QVQLVESGGGLVQAGGSLRLSCAASGRTFDPNAMGWYRQAPGKERELVAVITARGGNTSYADSVKGRFTISRDNAKNTVYLQMISLKPEDTAVYYCAAPADDTVHYQNYYWGQGTQVTVSS”, the “polyreactivity (PSR sort gate)” value is “low polyreactivity”. In the case of “QVQLVESGGGLVQAGGSLRLSCAASGRTFDPYAMGWYRQAPGKERELVAAITSSGGSTYYADSVKGRFTISRDNAKNTVYLQMNSLKPEDTAVYYCAAEQRDFIWWFYYWGQGTQVTVSS”, the “polyreactivity (PSR sort gate)” value was “high polyreactivity”. Consider “QVQLVESGGGLVQAGGSLRLSCAASGRTFDRNAMGWYRQAPGKEREVVAAISSSSGSTYYADSVKGRFTISRDNAKNTVYLQMNSLKPEDTAVYYCATVRWYYSRPRPTTAYGYWGQGTQGTVSS”, for which the “polyreactivity (PSR sort gate)” value is reported as “high polyreactivity”. As for “QVQLVESGGGLVQAGGSLRLSCAASGRTFDRYDMGWYRQAPGKERELVATISSSGGSTYYADSVKGRFTISRDNAKNTVYLQMNSLKPEDTAVYYCAADPSGDYWGQGTQVTVSS”, the “polyreactivity (PSR sort gate)” value was “low polyreactivity”. For “QVQLVESGGGLVQAGGSLRLSCAASGRTFDSNTMGWYRQAPGKERELVAAITGSGGRTYYADSVKGRFTISRDNAKNTVYLQMNSLKPEDTAVYYCNADSLYRYGSQYYYWGQGTQVTVSS”, the “polyreactivity (PSR sort gate)” value is reported as “high polyreactivity”. For “QVQLVESGGGLVQAGGSLRLSCAASGRTFDSYAMGWYRQAPGTETELVAGITRSGDSSYADSVKGRFTISRDNAKNTVYLQMTSLKPEDTAVYYCNKEGTVGGTRGYWGQGTQVTVSS” the value was “low polyreactivity”; for “QVQLVESGGGLVQAGGSLRLSCAASGRTFDSYTMGWYRQAPGKERELVAAINYSVASTNYADSLKGRFTISRDNAKITVYLQMNSLKTEDTAVYYCNRASAGWGPGTQVTVSS”, “low polyreactivity”; for “QVQLVESGGGLVQAGGSLRLSCAASGRTFDVYAMGWYRQAPGKERELVAAISKRGGSTYYADSVKGRFTISRDNAKNTVYLQMNSLKPEDTAVYYCNAYQTGWKGYDYWGQGTQVTVSS”, “high polyreactivity”.

As to “QVQLVESGGGLVQAGGSLRLSCAASGRTFDYNAMGWYRQAPGKERELVAAISYSTGTTYYADSVKGRFTISRDNAKNTVYLQMNSLKPEDTAVYYCAAEIFYSEYGYWGQGTQVTVSS”, the “polyreactivity (PSR sort gate)” value is recorded as “low polyreactivity”. For “QVQLVESGGGLVQAGGSLRLSCAASGRTFDYYTMGWYRQAPGKERELVAAISRSSGRTYYADSVKGRFTISRDNAKNTVYLQMNSLKPEDTAVYYCAARYYLSVRYGYWGQGTQVTVSS” the value was “high polyreactivity”; for “QVQLVESGGGLVQAGGSLRLSCAASGRTFEHYAMGWYRQAPGKEREFVAVIDSSDGSTYYADSVKGRFTISRDNAKNTVYLQMNSLKPEDTAVYYCLGGYYYLQYDYWGQGTQVTVSS”, “low polyreactivity”. As for “QVQLVESGGGLVQAGGSLRLSCAASGRTFEHYAMGWYRQAPGKERELVAAITWSGVSTYYADSVKGRFTISRDNAKNTVYVQMNSLKPEDTAVYYCAANWLGYGFDYWGQGTQVTVSS”, the entry is “low polyreactivity”. For “QVQLVESGGGLVQAGGSLRLSCAASGRTFEHYGMGWYRQAPGKEREFVADISRIGGSTYADSVKGRFTISRDNAKNTVYLQKNSLKPEDSAVYYCNKARYQLGSGYNYWGQGTQVTVSS” the value was “low polyreactivity”. Regarding “QVQLVESGGGLVQAGGSLRLSCAASGRTFEIYAMGWYRHAPGKERELVAAISSSGGSTYYADSVKGRFTISRDNAKNTVYLQMNSLKPEDTAVYYCAARYRATLTRTRVGYWGQGTQLTVSS”, the “polyreactivity (PSR sort gate)” value was “high polyreactivity”. For “QVQLVESGGGLVQAGGSLRLSCAASGRTFEKNAMGWYRQAPGKERELVASITSVGSTDYADSVKGRFTISRDNAKNTVYLQMNSLKPEDTAVYYCAKTLGSQNYDFDYWGQGTQVTVSS” the value was “low polyreactivity”; for “QVQLVESGGGLVQAGGSLRLSCAASGRTFEVYAMGLYRQAPGKERELVATITYSGGITYYADSVKGRFTISRDNAKNTVYLQMNSLKPEDTAVYYPIGVRGDYDYWGQGTQVTVSS”, “low polyreactivity”; for “QVQLVESGGGLVQAGGSLRLSCAASGRTFEWNAMGWYRQAPGKERELVAAITKRGGITYYADSVKGRFTISRDNAKNTVYLQMNSLKPEDTAVYYCAKRIVFYGRYDYWGQGTQVTVSS”, “high polyreactivity”.

Take “QVQLVESGGGLVQAGGSLRLSCAASGRTFEYYAMGWYRQAPGKEREFVAAISRSGGSTYYADSVKGRFTISRDNAKNTVYLQMNSLKPEDTAVYYCAASAIRRSQRFYHWGQGTQVTVSS”: the “polyreactivity (PSR sort gate)” value is recorded as “high polyreactivity”. With “QVQLVESGGGLVQAGGSLRLSCAASGRTFFANAMGWYRQAPGKERELVAAISGSGDRTYYADSVKGRFTISRDNAKNTVYLQMNSLKPEDTAVYYCAAAGWSARGYNYWGQGTQVTVSS”, the “polyreactivity (PSR sort gate)” value is “high polyreactivity”. With “QVQLVESGGGLVQAGGSLRLSCAASGRTFFDYAMGWYRQAPGKEWELVAAITASGSSTYYADSVKGRFTISRDNAKNTVYLQMNSLKPDDTAVYYCAAGASANKKITSYDYWGQGTQVTVSS”, the “polyreactivity (PSR sort gate)” value was “low polyreactivity”. As for “QVQLVESGGGLVQAGGSLRLSCAASGRTFFDYTMGWYRQAPGKERELVAAITGGDGSTYYADSVKGRFTISRDNAKTTVYLQMNSLKPEDTAVYDCAAEYTRTYWYAAMDYWGQGTQVTVSS”, the entry is “low polyreactivity”; as for “QVQLVESGGGLVQAGGSLRLSCAASGRTFFGYAMGWYRQAPGKEREFVAAISGSGGSTYYADSVKGRFTISRDNAKNTVYLQMNSLKPEDTAVYYCNGDYWGEYYYWGQGTQVSVSS”, “low polyreactivity”; as for “QVQLVESGGGLVQAGGSLRLSCAASGRTFFGYAMGWYRQAPGKERELVATISGSGASTYYADSVKGRFTISRDNAKNTVYLQMNSLKPEDTAVYYCAVRLYFYQRNYYSWGQGTQVTVSS”, “high polyreactivity”. Take “QVQLVESGGGLVQAGGSLRLSCAASGRTFFGYAMGWYRQAPGTERELVAAINWGGASTYYADSVKGRFTISRDNAKNTVYLQMNSLKPEATAVYYCAADSVPSRPTYGRYDYWGQGTQVTVSS”: the “polyreactivity (PSR sort gate)” value was “low polyreactivity”. As to “QVQLVESGGGLVQAGGSLRLSCAASGRTFFHYAMGWYRQAPRKERELVAAISSGGGTYADSVKGRFTISRDNAKNTVYLQMNSLKPEDTAVYYCNADTDSAKSPAYYYWGQGTQVTVSS”, the “polyreactivity (PSR sort gate)” value is recorded as “low polyreactivity”.

Take “QVQLVESGGGLVQAGGSLRLSCAASGRTFFIYAMGWYRQAPGKERELVAAIRWRGGSTYYADSVKGRFTISRDNAKNTVYLQMNSLKPEDTAVYYCAASNRQARYEDYYWGQGTQVTVSS”: the “polyreactivity (PSR sort gate)” value is on record as “high polyreactivity”.

For the sequence “QVQLVESGGGLVQAGGSLRLSCAASGRTFFKYAMGWYRQAPGKERELVAAITGRGGSTYADSVKGRFTISRDNAKNTVYLQMNCLKPEDTAVYYCAKVFQRGAQYYYYKYDYWGQGTQVTVSS”, the “polyreactivity (PSR sort gate)” value is on record as “high polyreactivity”. For “QVQLVESGGGLVQAGGSLRLSCAASGRTFFPNAMGWYRQAPGKERELVAAISSGGSTYYADSVKGRFTISRDNAKNTVYLQMNSLKPEDTAVYYCAVYGFYSKYGYWGQGTQVTVSS” the value was “high polyreactivity”.
